Results reported in publication PMC4232992.

Target: Human myeloma IgG1 carbamylated with 0.1 M KCNO for 3 h, heat-aggregated (human)
Experiment: ELISA

percent decrease in the deposition of C1q against native IgG1: 60%
Substance: C1q, the first component of the classical complement pathway (complex)
